In the experiment the target is T1, human transmembrane-4 L six family member-1 (TM4SF1), full-length (human, UniProt P30408 1-202, N-glycosylated at N129 and N159 (ECL2)).
T1 construct: whole, on cells; Four-transmembrane plasma membrane glycoprotein; It was tested on cells (HUVEC, transduced HDF and HEMn), in tissue sections and on immunoblots; also called FL-TM4SF1; FL
T1 sequence (looked up): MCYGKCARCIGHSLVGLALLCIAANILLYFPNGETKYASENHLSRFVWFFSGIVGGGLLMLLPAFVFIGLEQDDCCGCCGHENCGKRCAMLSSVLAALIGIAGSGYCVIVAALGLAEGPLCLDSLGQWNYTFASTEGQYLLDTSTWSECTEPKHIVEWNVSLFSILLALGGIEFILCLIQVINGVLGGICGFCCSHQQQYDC
Description: method not stated.

B1: 8G4 antibody (anti-TM4SF1 mouse monoclonal antibody produced by hybridoma mouse cell line 8G4-5-13-13F, PTA-120523) (antibody, V domains shown)
VH: EVILVESGGGLVKPGGSLKLSCAASGFTFSSFAMSWVRQTPEKRLEWVATISSGSIYIYYTDGVKGRFTISRDNAKNTVHLQMSSLRSEDTAMYYCARRGIYYGYDGYAMDYWGQGTSVTVSS
VL: AVVMTQTPLSLPVSLGDQASISCRSSQSLVHSNGNTYLHWYMQKPGQSPKVLIYKVSNRFSGVPDRFSGSGSGTDFTLKISRVEADDLGIYFCSQSTHIPLAFGAGTKLELK
notes: Mouse monoclonal antibody from a hybridoma; both have the length of variable domains; also called anti-TM4SF1 antibody 8G4
On to B1, for which the Kd was around 1 nM.

Source of the values: patent publication US20190062425A1 (BETH ISRAEL DEACONESS MEDICAL CENTER, published 2019).
